This experiment concerns Serine protease-digested Fg. Kind of experiment: ELISA with serine protease-treated immobilized Fg. The experiment is classed as binding, human. The following applies: 30 min at room temperature. The protocol:
Fg coated microtiter wells were pretreated for 30 min at room temperature with ancrod (•), PBS (untreated) (▾), thrombin (♦) or contortrixobin (▪). Plates were blocked, washed and incubated with a serine protease inhibitor (1 NIH unit/ml hirudin for thrombin and 100 μg/ml PMSF for ancrod and contortrixobin). Biotin labeled rSdrG(50-597) (25-1000 nM) was incubated in the wells for 1 h at room temperature. Values represent the mean±standard deviation of triplicate wells.
The A[…] chain may interfere with rSdrG(50-597) binding to the Bβ chain and this observation may be due to the absence of FpA, thus making the N-terminus of the Bβ chain more easily accessible.
(In general: An ELISA detects its analyte on a solid surface through an enzyme-linked reagent.)

“Also recorded” adds a separate entry of the source.

B1: rSdrG(50-597): recombinant His-tagged A region (residues 50-597) of SdrG, a fibrinogen-binding MSCRAMM from S. epidermidis (protein)
chain: HHHHHHAEENTVQDVKDSNMDDELSDSNDQSSNEEKNDVINNSQSINTDDDNQIKKEETNSNDAIENRSKDITQSTTNVDENEATFLQKTPQDNTQLKEEVVKEPSSVESSNSSMDTAQQPSHTTINSEASIQTSDNEENSRVSDFANSKIIESNTESNKEENTIEQPNKVREDSITSQPSSYKNIDEKISNQDELLNLPINEYENKVRPLSTTSAQPSSKRVTVNQLAAEQGSNVNHLIKVTDQSITEGYDDSDGIIKAHDAENLIYDVTFEVDDKVKSGDTMTVNIDKNTVPSDLTDSFAIPKIKDNSGEIIATGTYDNTNKQITYTFTDYVDKYENIKAHLKLTSYIDKSKVPNNNTKLDVEYKTALSSVNKTITVEYQKPNENRTANLQSMFTNIDTKNHTVEQTIYINPLRYSAKETNVNISGNGDEGSTIIDDSTIIKVYKVGDNQNLPDSNRIYDYSEYEDVTNDDYAQLGNNNDVNINFGNIDSPYIIKVISKYDPNKDDYTTIQQTVTMQTTINEYTGEFRTASYDNTIAFSTSSGQGQGDLPPE
With B1, the “binding to Fg treated with contortrixobin” value is given as “could not bind; also recorded: not able to bind” and the “binding to Fg treated with thrombin” value is recorded as “could not bind”. Under “versus untreated Fg”, the “binding to Fg treated with ancrod” value is recorded as “bind better; also recorded: still able to bind”.

The record behind these values is patent US6835378B2, “Method and compositions for inhibiting thrombin-induced coagulation” (The Texas A&M University System University, priority 2001, dated 2004).
